Measured values: the nanobody polyreactivity screen of Harvey et al. (2022)

Assay: yeast display, Sf9 membrane polyspecificity reagent, FACS + sequencing; frameworks hold sequencing errors
Procedure, shortened: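 Galactose induction of a Saccharomyces cerevisiae BJ5465 synthetic nanobody display library ran 36–48 hours. The cells were then stained for 1 hour at 4 °C with 10% biotinylated, detergent-solubilized Sf9 membrane reagent, pulled down on streptavidin microbeads and FACS-sorted into low and high (top ~1%) gates on expression and reagent-binding fluorescence. Labels for polyreactivity follow the gate of origin.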

Sequence | polyreactivity (PSR sort gate)
QVQLVESGGGLVQAGGSLRLSCAASGSIFEWYAMGWYRQAPGKERELVATITGSGGSTYYADSVKGRFTISRDNAKNTVYLQMNSLKPEDTAVYYCAAVPPPGGLDYWGQGTQVTVSS | high polyreactivity
QVQLVESGGGLVQAGGSLRLSCAASGRTFKRNAMGWYRQAPGKERELVAAISSDGRTNYADSVKGRFTISRDNAKNTVYLQMNSLKPEDTAVYYCAASYVLSYGTYYYWGQGTQVTVSS | low polyreactivity
QVQLVESGGGLVQAGGSLRLSCAASGSIFNGYAMGWYRQAPGKERELVAAISKRGGSTYYADSVKGRFTISRDNAKNTVYLQMNSLKPEDTAVYYCAARRLFPYGYWGQGTQVTVSS | high polyreactivity
QVQLVESGRGLVQAGGSLRLSCAASGSNFSVYAMGWYRKAPGKERELVAGITRGGSTYADSVKGRFTISRDNAKNTVYLQMNCLKPEDTAVYYFNAVWSNFRLGYDYWGQGTQVTVSS | high polyreactivity
QVQLEESGGGLVHAGGSLRLSCAASGFTFKYNAMGWYRQAPGKEREFVASISSGSTNYADSVKGRFTISRDNAKNTVYLQMNSLKPEDTAVYYCAASVSRGKRFRYGYVFKMDYWGQGTQVTVSS | low polyreactivity
QVQLVESGGGLVQAGGSLRLSCAASGRIFRGYAMGWYRQAPGKERELVAAIDRVGRTKYADSVKGRFTISRDNAKNTVYLQMNSLKPEDTAVYYCAAKASRVDWGYGYWGQGTQVTVSS | high polyreactivity
QVQLVESGGGLVQAGGSLRVSCAASGRIFPFYAMGWYRQAAGKERELVAAISWNGGSTFYADSVKGRFTSSRDNANNTVYLQMHRLKPEDNAVYYCNADFRPAYTYDYWGQGTQVTVSS | low polyreactivity
QVQLVESGGGLVQAGGSLRLSCAASGRIFVTYVMGWYRPAPGKERELVAAISRRGGTTYYADSVKGRFTISRDNAKNTVYLQMNSLKPEDTAVYYCNVARHYAVESGYWGQGTQVTVSS | high polyreactivity
QVQLVESGGGLVQAGGSLRFSCAASGFIFYRNTMGWYRQAPGKEREFVAAIRWRGGSTYYADSVKGRFTISRDNAKNTVYLQMNSLKPEDTAVYYCAADTRPGYSGFVYWGQGTQVTVSS | high polyreactivity
QVQLVESGGGLVQAGGSLRLSCAASGFTFRYYTMGWYRQAPGKERELVASITWRGGSTYYADSVKARFTISRDNAKNTVYLQMNSMKPEDTAVYYCNAERPYQYYPGIYRWYYYWGQGTQVTVSS | low polyreactivity
QVQLVESGGGLVQAGGSLRLSCAASGLIFVKYAMGWYRQAPGKERELVAAITSTGGSTYYADSVKGRFTISRDNAKNTVYLQMNILKPEDTAVYYCATDYGYYDYWGQGTQVTVSS | low polyreactivity
QDHLVESGGGLVQAGGSLRLSCAASGRIFDPYAMGWYRQAPGKERELVARITWRGGRTYYADSVKGRFTISLDNAKNTVYLQMNSLKPEDTAVYYCNAVFYYRYYGAYDYWGQGTQVTVSS | high polyreactivity
QVQLVESGGGLVQAGGSLRFSCAASGLYYYAMGWYRQAPGKERALVAVITYSGGSTYYADSVKGRFTISRDNGKNSVYLQMNSLKPEDTAVYNCAAEDYYVALPGLYDYWGQGTQVTVSS | low polyreactivity
QVQLVESGVGLVQAGGSLSITCAASGRTFAGNSMGSYRQAPGKERELVAAISQGGGSTYYADSVKGRFTISRDNAKNTVYLQMNSRKAEDTAVYYCAAEIPRRWASFATQWYDYWGLGTQVTVSS | low polyreactivity
QVQRVESGGGLVQAGGSLRLSCAASGRTFYLNAMGWYRQATGKERQLVAAINRGTRTYYADSVKGRFTISRDNAKNTVYLQMNSVKPEDTAVYYCAAVPRYYYSSSYTMDYWGQGTQVTVSS | high polyreactivity
QAELVESGGGLVQAGGSLRLSCAASGLTFRAYAMGWYRQAPGKERELVAAISWNGGSTYYADSVKGRFTISRDNAKNTVYLQMNSLKPEDTAVYYCNAYDYQYFYGYEYDYWGQGTQVTVSS | high polyreactivity

Sequence | polyreactivity (PSR sort gate)
QVQLVETGGGIVQAGGSLRLSCAASGSTFDGYVMGWYRQEPGKERELVAAISGSGGSTYYADSVKGRFTISRDNAKNTVYFELYSLKPEDTSVYYCAADSWWYDDYSEGDYWGQGTQVTVSS | low polyreactivity
QVHLVESGGGLVQAGGSLRLSCAASGRTFWLNAMGWYRQAPGKERELVATISSSSGSTTYADSVKGRFTISRDNAKNTVYLQINSLKPEDTAVYYCAVYSHKKVRPEYDYWGQGTQVTVSS | low polyreactivity
QVQLVETGGGLVQAGGSLRLSCAASGRIFRTNAMGWYRQAPGKEREFVAAISKDGGRTYYADSVKGRFTISRDNAKNTVYLQMNSLKPEDTAVYYCNARHRYYRYGYWGQGTQVTVSS | high polyreactivity
QVQLVDSGGRLVHAGGSLRLSCAASGRTIYRNAMGLYRQAPGKERELVAAISSDDSTNYSDSVKGRFTISRDNAKNTVYFQMNSLKPEDTAVYYCNADYYYGYDYDYWGQGSQVTVSS | low polyreactivity
QVQLVESGGGLDQAGGSLRLSCAASGSIFYHNAMGWYRQAPGKERELVAAITGSGGSTYYADSVKWRFTISRDNAKNTFYLQMNSLKPEDTAVYYCAADYDYQYRYYYWGQGTQVTVSS | low polyreactivity
QVQLVVSGGGLVQAGGSLRLSCAASGSIFVPYAMGWYRQAPGKEREFVAAITRSSGSTYYADSVKGRFTISRDNAKNTVYLQMNSLKPEDTAVYYCAADFLLEFDYWGQGTQVTVSS | low polyreactivity
QVQLVESGGGLVQAGGSLRLSCAASGSIFAYNTMGWYRQAPGKERELVAAITGRAGSTYYADSVKGRFTISRDNAKNTVYLQMNSLKPEDTAVYYCNAPTWVRGGYDYWGQGTQVTVSS | high polyreactivity
QVQLVESGGGLVQAGGSLRLSCAASGFTLYGYAMGWYRQAPGKERELVAGIRYSGGRTYYADSVKGRFTISRDNAKNTVYLQMNSLKPEDTAVYYCAADGGYWRGTGYEYWGQGTQVTVSS | high polyreactivity
QVQLVESGGGLVQAGGSLRLSCAASGSTFYVYAMGWYRQAPGKERELVAAIDDSGDRTYYADSVKGRFTISRDNAKNTVYLQMNSLKPEDTAVYYCAAEYDSWEYDYWGQGTQVTVSS | low polyreactivity
QVQLVESGGGLVQAGGSLRLSCAASGSTFLTNTMGWYRQAPGKERELVAAITLRGGRTYYADSVKGRFTISRDNAKNTVYLQMNSLKPEDTAVYYCNARNYYYPSDRDYWGQGTQVTVSS | low polyreactivity
QVQLVESGGGLVQAGGSLRLSCAASGRIFYIYTMGWYRQAPGKEREFVAGINWNGGSTYYADSVKGRFTISRDNAKNTVYLQMNSLKPEDTAVYYCNADQYWDRYYYWGQGTQVTVSS | low polyreactivity
QVQLVESGGGLVQAGGSLRLSCAASGSTFREYTMGWYRQAPGKERELVAAITNSGGSTYYADSVKGRFTISRDNAKNTVYLQLNSLKPEDTAVYYCAAEVGIVDYDYWGQGTQVTVSS | low polyreactivity
QVQLVESGGGLVQAGGSLRLSCAASGSIFGGYALGWYRQAPGNERELVAAITSSGGRTYYADSVKGRFTISRDNAKNTVYLQMNSLKPEDTAVYYCAARYTRWRYIYKDYDYWGQGTQVTVSS | high polyreactivity
QVQLVESGGGLVQAGGSLRLSCAASGRTFYFNAMGWYRQAPGKERELVAAITFSGGSTNYADSVKGRFTISRDNAKNTVYLQMNSLKPEDTAVYYCAAPKYLGTDEYDYWGQGTQVTVSS | low polyreactivity
QVQLVESGGGLLQAGGSLRLSCAASGFIFADNAMGRYIQAPGKERELVAGITSGGITNYADSVKGRFTISRDNAKNTVYLQMNSLKPEDSAVYYCAVYYRRWLSRYDYWGQGTQVTVSA | low polyreactivity
QVQLVESGGGLVQAGGSLRLSCAASGRLFVYNAMGWYRQAPGKERELVAAISWRGGSTYYADSVKGRFTISRDNAKNTVYLQMYSLKPEDTAVYDCAAQRTARQFDYWGQGTQVTVSS | high polyreactivity
